Measured values reported in patent US20190134153A1, “IMMUNOMODULATORY EFFECT OF INHALED KINASE INHIBITOR PEPTIDES IN LUNG” (MOERAE MATRIX, INC., priority 2017, published 2019).

Assays:
Test in all cases: Kinase Profiling Assay
Assay type in all cases: biochemical
Conditions in all cases: 100 μM
CaMKI(h) = CaMKI(h) (Homo sapiens, UniProt Q14012)
CaMKIIβ(h) = CaMKIIβ(h) (Homo sapiens, UniProt Q13554)
CaMKIIγ(h) = CaMKIIγ(h) (Homo sapiens, UniProt Q13555)
JAK2(h) = JAK2(h) (Homo sapiens, UniProt O60674)
Sequence of JAK2(h) (O60674 whole entry): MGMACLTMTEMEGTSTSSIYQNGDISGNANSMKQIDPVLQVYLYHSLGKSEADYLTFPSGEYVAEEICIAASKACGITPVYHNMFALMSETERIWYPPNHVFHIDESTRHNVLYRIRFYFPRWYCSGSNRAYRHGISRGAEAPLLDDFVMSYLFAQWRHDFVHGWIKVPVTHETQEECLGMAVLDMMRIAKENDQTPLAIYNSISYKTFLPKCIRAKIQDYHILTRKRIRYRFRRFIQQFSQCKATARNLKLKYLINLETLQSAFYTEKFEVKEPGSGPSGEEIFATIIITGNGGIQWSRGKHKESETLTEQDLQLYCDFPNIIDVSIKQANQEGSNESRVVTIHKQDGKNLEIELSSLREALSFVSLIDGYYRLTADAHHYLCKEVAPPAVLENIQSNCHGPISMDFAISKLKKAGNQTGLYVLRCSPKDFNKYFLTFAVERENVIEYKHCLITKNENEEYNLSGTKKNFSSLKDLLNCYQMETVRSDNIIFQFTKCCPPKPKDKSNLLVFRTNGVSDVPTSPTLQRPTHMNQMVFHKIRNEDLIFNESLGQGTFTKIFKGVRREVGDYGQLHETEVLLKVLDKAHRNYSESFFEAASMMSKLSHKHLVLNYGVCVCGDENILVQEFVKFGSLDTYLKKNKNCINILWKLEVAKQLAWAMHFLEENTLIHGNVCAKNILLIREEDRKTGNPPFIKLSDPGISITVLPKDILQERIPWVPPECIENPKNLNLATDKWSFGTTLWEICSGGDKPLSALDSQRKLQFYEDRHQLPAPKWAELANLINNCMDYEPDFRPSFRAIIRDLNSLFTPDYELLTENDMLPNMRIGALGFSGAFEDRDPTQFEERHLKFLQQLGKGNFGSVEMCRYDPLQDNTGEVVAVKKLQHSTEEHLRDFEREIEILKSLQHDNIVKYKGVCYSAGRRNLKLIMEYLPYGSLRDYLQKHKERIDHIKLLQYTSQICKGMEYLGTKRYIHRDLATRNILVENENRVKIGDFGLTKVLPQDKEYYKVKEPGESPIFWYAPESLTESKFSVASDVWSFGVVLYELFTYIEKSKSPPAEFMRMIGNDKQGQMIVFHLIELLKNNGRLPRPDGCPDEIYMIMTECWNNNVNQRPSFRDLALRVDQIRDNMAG

MSK2(h) = MSK2(h) (Homo sapiens, UniProt O75676)
Sequence of MSK2(h) (O75676 whole entry): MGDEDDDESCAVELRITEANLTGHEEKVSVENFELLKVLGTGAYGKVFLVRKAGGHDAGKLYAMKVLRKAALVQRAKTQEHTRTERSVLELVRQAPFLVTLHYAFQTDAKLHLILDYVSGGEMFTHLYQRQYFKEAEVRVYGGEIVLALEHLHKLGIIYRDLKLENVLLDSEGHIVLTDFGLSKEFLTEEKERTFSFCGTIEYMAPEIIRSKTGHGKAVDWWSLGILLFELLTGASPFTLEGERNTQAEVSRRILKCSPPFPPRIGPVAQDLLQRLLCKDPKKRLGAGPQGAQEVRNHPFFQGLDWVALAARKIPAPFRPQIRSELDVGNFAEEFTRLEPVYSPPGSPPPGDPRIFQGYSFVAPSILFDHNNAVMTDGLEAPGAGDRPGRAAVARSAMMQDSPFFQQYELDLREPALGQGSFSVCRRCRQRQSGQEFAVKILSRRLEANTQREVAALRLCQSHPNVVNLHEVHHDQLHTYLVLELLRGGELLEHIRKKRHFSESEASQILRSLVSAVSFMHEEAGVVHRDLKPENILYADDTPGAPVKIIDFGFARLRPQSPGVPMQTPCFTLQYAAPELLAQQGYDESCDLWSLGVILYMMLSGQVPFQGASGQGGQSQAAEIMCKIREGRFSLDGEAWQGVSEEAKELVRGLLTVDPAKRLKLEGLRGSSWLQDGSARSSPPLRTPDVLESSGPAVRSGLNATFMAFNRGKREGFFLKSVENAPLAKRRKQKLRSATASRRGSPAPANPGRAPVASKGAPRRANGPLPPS

SAPK3(h) = target: T1, SAPK3(h) (Homo sapiens, UniProt P53778)
T1 sequence (P53778 1-367): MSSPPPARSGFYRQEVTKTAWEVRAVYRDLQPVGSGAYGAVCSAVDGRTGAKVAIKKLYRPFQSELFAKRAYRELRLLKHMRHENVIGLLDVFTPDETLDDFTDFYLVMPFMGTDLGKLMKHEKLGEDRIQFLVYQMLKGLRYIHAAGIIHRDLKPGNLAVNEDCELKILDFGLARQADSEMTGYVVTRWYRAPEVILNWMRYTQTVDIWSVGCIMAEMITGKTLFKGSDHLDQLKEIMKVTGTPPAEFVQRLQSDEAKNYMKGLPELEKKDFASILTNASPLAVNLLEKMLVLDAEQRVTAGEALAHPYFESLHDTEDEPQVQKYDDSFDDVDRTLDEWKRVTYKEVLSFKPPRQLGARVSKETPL

TAK1(h) = target: T2, TAK1(h) (Homo sapiens, UniProt O43318)
T2 sequence (O43318 1-303 limits assumed): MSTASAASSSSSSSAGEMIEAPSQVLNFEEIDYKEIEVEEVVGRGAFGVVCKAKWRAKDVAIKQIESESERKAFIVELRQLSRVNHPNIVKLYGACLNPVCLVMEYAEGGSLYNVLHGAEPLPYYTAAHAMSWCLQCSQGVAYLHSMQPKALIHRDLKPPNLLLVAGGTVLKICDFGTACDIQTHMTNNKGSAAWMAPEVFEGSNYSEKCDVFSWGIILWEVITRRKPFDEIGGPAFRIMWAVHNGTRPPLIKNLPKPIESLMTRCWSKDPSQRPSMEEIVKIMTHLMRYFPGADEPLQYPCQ

DDR2(h) = target: T3, DDR2(h) (Homo sapiens, UniProt Q16832)
T3 sequence (Q16832 22-855): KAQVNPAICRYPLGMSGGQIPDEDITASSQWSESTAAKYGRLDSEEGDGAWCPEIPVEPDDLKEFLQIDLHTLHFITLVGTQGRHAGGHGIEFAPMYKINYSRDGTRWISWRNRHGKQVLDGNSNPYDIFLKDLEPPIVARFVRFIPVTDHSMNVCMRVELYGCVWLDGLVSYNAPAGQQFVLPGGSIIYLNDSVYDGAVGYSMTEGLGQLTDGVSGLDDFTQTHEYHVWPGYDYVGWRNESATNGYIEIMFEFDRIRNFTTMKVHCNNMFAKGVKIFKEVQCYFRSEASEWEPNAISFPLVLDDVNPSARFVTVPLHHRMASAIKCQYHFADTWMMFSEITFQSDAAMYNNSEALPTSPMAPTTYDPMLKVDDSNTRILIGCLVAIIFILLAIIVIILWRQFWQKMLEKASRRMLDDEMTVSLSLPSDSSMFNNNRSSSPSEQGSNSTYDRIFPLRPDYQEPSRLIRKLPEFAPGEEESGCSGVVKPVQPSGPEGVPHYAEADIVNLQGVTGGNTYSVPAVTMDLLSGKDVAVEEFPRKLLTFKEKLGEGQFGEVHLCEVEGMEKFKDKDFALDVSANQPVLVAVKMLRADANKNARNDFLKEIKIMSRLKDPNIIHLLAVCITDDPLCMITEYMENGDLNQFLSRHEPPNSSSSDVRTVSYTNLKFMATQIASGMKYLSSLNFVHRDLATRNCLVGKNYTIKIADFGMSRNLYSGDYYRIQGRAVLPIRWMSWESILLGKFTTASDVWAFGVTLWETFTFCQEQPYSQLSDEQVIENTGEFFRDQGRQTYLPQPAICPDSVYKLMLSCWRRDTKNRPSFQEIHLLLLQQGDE

EphA1(h) = target: T4, EphA1(h) (Homo sapiens, UniProt P21709)
T4 sequence (P21709 26-976): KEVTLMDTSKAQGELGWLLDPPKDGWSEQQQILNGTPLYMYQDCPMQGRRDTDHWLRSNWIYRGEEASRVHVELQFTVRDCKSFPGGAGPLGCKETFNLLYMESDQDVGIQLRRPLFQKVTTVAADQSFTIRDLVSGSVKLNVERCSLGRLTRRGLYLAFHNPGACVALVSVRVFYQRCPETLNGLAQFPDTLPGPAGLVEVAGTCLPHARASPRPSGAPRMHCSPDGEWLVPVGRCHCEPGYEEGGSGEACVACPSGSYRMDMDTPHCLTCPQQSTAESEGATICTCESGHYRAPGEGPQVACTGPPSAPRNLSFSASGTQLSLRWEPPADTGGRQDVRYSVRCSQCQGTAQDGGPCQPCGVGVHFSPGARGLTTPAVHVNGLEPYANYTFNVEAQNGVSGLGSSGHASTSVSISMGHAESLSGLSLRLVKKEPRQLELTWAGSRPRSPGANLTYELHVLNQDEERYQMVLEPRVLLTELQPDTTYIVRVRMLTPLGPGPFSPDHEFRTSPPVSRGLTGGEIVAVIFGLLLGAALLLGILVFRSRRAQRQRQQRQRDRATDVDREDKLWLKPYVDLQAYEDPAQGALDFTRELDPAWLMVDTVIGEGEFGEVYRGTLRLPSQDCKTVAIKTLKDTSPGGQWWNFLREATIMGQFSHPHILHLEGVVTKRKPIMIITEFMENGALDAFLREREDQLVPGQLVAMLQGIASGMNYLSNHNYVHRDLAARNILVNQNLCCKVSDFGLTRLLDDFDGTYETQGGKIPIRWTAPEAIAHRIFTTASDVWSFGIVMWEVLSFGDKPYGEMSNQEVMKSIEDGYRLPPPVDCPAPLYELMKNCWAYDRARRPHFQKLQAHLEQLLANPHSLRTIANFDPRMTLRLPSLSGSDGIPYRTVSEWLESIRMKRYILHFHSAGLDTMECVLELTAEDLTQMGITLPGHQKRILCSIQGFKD

Sequence of CaMKIIβ(h) (Q13554 whole entry): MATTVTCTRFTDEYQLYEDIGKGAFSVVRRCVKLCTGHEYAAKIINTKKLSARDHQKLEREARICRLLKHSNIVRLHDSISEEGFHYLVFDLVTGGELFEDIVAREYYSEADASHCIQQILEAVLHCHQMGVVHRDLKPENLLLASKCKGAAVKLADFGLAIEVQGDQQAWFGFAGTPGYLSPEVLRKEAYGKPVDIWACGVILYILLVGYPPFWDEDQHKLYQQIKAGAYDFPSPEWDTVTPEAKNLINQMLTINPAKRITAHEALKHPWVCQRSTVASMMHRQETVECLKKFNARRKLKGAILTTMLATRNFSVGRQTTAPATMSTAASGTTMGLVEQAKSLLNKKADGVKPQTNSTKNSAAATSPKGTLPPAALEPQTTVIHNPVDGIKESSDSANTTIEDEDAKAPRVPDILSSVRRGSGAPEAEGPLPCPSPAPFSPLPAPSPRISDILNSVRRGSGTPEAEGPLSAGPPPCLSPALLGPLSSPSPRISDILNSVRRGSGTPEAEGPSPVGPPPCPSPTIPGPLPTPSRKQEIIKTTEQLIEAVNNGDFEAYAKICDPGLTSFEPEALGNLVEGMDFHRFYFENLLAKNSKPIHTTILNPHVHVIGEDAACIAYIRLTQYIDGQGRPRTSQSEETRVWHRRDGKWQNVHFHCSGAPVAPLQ
Sequence of CaMKI(h) (Q14012 whole entry): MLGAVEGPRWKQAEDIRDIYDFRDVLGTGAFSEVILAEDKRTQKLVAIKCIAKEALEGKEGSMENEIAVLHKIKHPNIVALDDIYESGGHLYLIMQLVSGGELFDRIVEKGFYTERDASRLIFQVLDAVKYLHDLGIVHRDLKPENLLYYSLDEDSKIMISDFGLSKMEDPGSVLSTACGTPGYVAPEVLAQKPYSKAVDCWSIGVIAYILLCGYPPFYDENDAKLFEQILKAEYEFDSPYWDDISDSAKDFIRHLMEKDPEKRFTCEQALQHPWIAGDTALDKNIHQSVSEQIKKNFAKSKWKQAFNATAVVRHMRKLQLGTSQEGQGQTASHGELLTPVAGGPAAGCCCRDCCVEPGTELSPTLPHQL
Sequence of CaMKIIγ(h) (Q13555 whole entry): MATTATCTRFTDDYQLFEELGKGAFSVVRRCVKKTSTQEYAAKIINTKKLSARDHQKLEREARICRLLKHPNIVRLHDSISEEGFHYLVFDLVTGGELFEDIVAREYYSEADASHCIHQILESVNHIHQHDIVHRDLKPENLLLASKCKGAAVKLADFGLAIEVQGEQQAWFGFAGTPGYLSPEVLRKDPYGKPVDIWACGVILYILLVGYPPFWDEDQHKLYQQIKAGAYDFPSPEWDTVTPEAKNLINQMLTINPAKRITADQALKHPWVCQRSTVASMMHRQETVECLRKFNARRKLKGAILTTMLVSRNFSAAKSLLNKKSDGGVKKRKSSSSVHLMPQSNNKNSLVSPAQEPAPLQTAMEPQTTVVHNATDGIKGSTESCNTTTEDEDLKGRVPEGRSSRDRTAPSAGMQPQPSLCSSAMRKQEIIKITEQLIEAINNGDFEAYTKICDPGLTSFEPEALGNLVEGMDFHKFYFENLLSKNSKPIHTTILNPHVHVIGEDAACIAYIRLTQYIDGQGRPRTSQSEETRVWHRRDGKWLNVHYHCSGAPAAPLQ

What does the source list for YARAAARQARAKALNRQLGVA [MMI-0200]?
% activity (CaMKI(h)): 21%; % activity (CaMKIIβ(h)): 53%; % activity (CaMKIIγ(h)): 94%; % activity (JAK2(h)): 131%; % activity (MSK2(h)): 88%; % activity (SAPK3(h)): 97%; % activity (TAK1(h)): 124%

Which results are given for FAKLAARLYRKALARQLGVAA [MMI-0300]?
% activity (CaMKI(h)): 1%; % activity (CaMKIIβ(h)): 2%; % activity (CaMKIIγ(h)): 5%; % activity (DDR2(h)): 94%; % activity (EphA1(h)): 73%; % activity (JAK2(h)): 133%; % activity (MSK2(h)): 56%; % activity (SAPK3(h)): 84%; % activity (TAK1(h)): 122%

KAFAKLAARLYRKALARQLGVAA [MMI-0400] was tested. Which “% activity” value (CaMKI(h)) did it give?
The value was 0%.

And the “% activity” value (CaMKIIβ(h))?
The value was 11%.

What about the “% activity” value (CaMKIIγ(h)) of the same sequence?
The value was 3%.

And the “% activity” value (DDR2(h))?
Its value is 95%.

What about the “% activity” value (EphA1(h)) of the same sequence?
Its value is 61%.

And the “% activity” value (MSK2(h))?
The value was 52%.

And the “% activity” value (SAPK3(h))?
The value was 79%.

What about the “% activity” value (TAK1(h)) of the same sequence?
Its value is 177%.

Which results are given for HRRIKAWLKKIKALARQLGVAA [MMI-0500]?
% activity (CaMKI(h)): −1%; % activity (CaMKIIβ(h)): 3%; % activity (CaMKIIγ(h)): 3%; % activity (DDR2(h)): 79%; % activity (EphA1(h)): 40%; % activity (JAK2(h)): 49%; % activity (MSK2(h)): 14%; % activity (SAPK3(h)): 24%
